The values below come from patent publication US20150072922A1, “RNASE 7 ANTIMICROBIAL PEPTIDES” (THE RESEARCH INSTITUTE AT NATIONWIDE CHILDREN'S HOSPITAL, priority 2012, published 2015).

“Also recorded” adds a separate entry of the source.

One test concerns Escherichia coli (UTI89). In words: Antimicrobial kill (microdilution) assay, MIC/MBC by CFU count. In kind it is cell-based. The gist of the method: (§1)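 Bacteria (10^5 or 10^4 CFU) were exposed to graded RNase 7 or fragment concentrations in 0.1×PBS for 3 h at 37° C, then plated and counted as CFU after overnight growth at 37° C. MIC: lowest concentration inhibiting 90% of inoculum growth versus untreated bacteria. MBC: lowest concentration leaving […] of inoculum viable.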
For orientation: Dilution methods test growth across graded concentrations, often in twofold steps.

Test [1] relates to Staphylococcus saprophyticus (ATCC 15305). Described as above. Type of test: cell-based. The gist of the method:
as §1

Test [2] relates to Proteus mirabilis (ATCC 7002). The test is described as above. In kind it is cell-based. Put shortly: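 P. mirabilis (ATCC 7002) grown in LB, 10^4 CFU incubated with graded RNase 7 or fragments in 0.1×PBS, 3 h, 37 °C; plated on MacConkey II agar overnight at 37 °C for CFU counts. MIC: lowest concentration inhibiting 90% vs untreated; MBC: lowest concentration leaving […] of inoculum viable.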

Another test has as its system E. coli (UTI-89). In words: Live/Dead BacLight bacterial viability assay (confocal imaging). In kind it is cell-based, Escherichia coli. Particulars: 1 μM. The procedure:
(§2) Bacterial viability assays were performed using a Live/Dead BacLight™ bacterial viability kit (Invitrogen). Uropathogenic E. coli (UTI-89) and S. Saprophyticus (ATCC 15305) were grown at 37° C. to the mid-log phase, centrifuged at 5000 rpm for 5 min, and resuspended in water with an OD=0.2. Bacteria were stained using a 1:1 mixture of a green-fluorescent STY®9 dye and a red-fluorescent propidium iodide dye as provided in the Live/Dead BacLight™ bacterial viability kit. SYTO®9 labels both live and dead bacteria. Propidium iodide penetrates only bacteria with damaged membranes. Consequently, live bacteria with intact membranes fluoresce green, while dead bacteria with damaged membranes fluoresce red. […]. 50 uL of stained uropathogenic bacteria was mixed with recombinant RNase 7 or RNase 7 fragments to achieve a final concentration of 3 uM and 1 uM. 10 uL of this mixture was added to poly-1-lysine coated microscope slides (Polysciences, Inc, Warrington, Pa., USA) and confocal images of the bacteria were obtained using a Zeiss LSM 700 confocal laser scanning microscope (Carl Zeiss LLC, Thornwood, N.Y., USA). SYTO®9 was excited using an argon laser (448-500 nm emission collected) and propidium iodide was excited using an orange diode (555-600 nm emission collected). Samples were imaged in triplicate.
(§3) For images of intact versus disrupted membranes of dying/dead cells, the Live/Dead BacLight™ bacterial viability kit (Invitrogen) was used. E. coli and S. saprophyticus were grown at 37° C. to the mid-log phase, centrifuged at 5000 rpm for 5 min, and resuspended in water to an OD600 of 0.2. Bacteria were incubated in a 1:1 mixture of Live/Dead BacLight™ bacterial viability assay. A bacterial aliquot of 50 μL was mixed with recombinant RNase 7 or recombinant fragments to achieve a final concentration of 1 μM. Ten microliters of this mixture was added to poly-1-lysine coated microscope slides (Polysciences, Inc, Warrington, Pa., USA), and images were obtained in triplicate using a Zeiss LSM 710 confocal laser scanning microscope (Carl Zeiss LLC, Thornwood, N.Y., USA).

Test [3] concerns S. Saprophyticus (ATCC 15305). The test is described as above. In kind it is cell-based, Staphylococcus saprophyticus. Particulars: 1 μM. Here is the method: as §2, §3
In another test the test system is E. coli. As to the kind of experiment: Urinary condition functional assay (OD600 growth curves). Type of test: cell-based, Escherichia coli. Here is the method:
(§4) Because the urinary environment can have significant variation in salt concentration, ionic composition, and pH, an antimicrobial/bacteriostatic assay was performed to evaluate if pH, calcium, or ionic strength affects the activity of full-length RNase7 or its fragments. The highest activity fragment F:1-97 and lowest activity fragment F:72-128 for these experiments were chosen. Bacteria were inoculated in 1% peptone water and growth to log phase with OD600=0.5. Bacteria were diluted to 1:10 and 1 μl added to 100 μl of 1% peptone water with various pH, CaCl2 or NaCl concentrations that correspond to a physiologic range present in the urine in a 96-well flat bottom plate (Thermo Scientific, Nunc, Worcester, Mass.). To each well, 2 μM of RNase7 or its fragments were added.
(§5) Bacterial growth was monitored using an Absorbance microplate reader (BioTek Instruments, Winooski, Vt.) at a final volume of 110 μl. The turbidity of the culture was measured and recorded at t=0 and every 20 min thereafter for 10 hours using the absorbance at 600 nm (OD600). The values of OD600 values were plotted against times to generate growth curves.

The next test deals with S. saprophyticus. The test is described as above. Type of test: cell-based, Staphylococcus saprophyticus. Here is the method:
as §4, §5

Another test deals with Proteus mirabilis. The test is described as above. In kind it is cell-based. Here is the method: as §4, §5
Where [4] appears, read: lowest concentration that inhibits the growth of 90% of the inoculation, 3 hours, 0.1×PBS.
Where [5] appears, read: minimum bactericidal concentration, 3 hours, 0.1×PBS.

B1: RNase7: recombinant full-length human Ribonuclease 7, amino acids 1-128 (SEQ ID NO: 1), N-terminal His tag (protein, listed as Homo sapiens)
chain: KPKGMTSSQWFKIQHMQPSPQACNSAMKNINKHTKRCKDLNTFLHEPFSSVAATCQTPKIACKNGDKNCHQSHGPVSLTMCKLTSGKYPNCRYKEKRQNKSYVVACKPPQKKDSQQFHLVPVHLDRVL
modifications: N-terminal His tag
Take B1: the “MIC against E. coli” value against Escherichia coli (UTI89) is 0.26 µM. Moreover, the “MIC for E. coli” value against Escherichia coli (UTI89) (E. coli UTI89) is given as 0.26 LM. In addition, in the test on Escherichia coli (UTI89) (setting [4]), the “E. coli MIC” value was determined as 0.26 µM. Moreover, in the test with Escherichia coli (UTI89) (setting [5]), the “E. coli MBC” value is 0.53 µM. Moreover, the “MIC for S. saprophyticus” value in test [1] was found to be 0.22 µM. For the same molecule, the “S. saprophyticus MIC” value in test [1] (setting [4]) was 0.22 µM. In addition, the “S. saprophyticus MBC” value in test [1] (setting [5]) was “.44 µM”. For the same molecule, the “MIC for P. mirabilis” value in test [2] stood at 0.88 µM. Moreover, in test [2] (MIC/MBC based, mostly compared to full-length RNase 7), the “antimicrobial activity against P. mirabilis (in words)” value was “MIC and MBC values that were identical”. Also, in test [2] (setting [4]), the “P. mirabilis MIC” value was “.88 µM”. Besides, the “P. mirabilis MBC” value in test [2] (setting [5]) was “.88 µM”. Moreover, the results for the “killing of E. coli in Bacterial Viability Assay” value with E. coli (UTI-89) (30 min) and in the test on E. coli (UTI-89) (3 hours) were “did not” and “completely dead”, respectively. For the same molecule, the results for the “killing of S. saprophyticus in Bacterial Viability Assay” value in test [3] (30 min) and in test [3] (3 hours) were “did not” and “completely dead”, respectively. The “activity on E. coli growth at various pH levels” value with E. coli (2 μM peptide, 1% peptone water, pH 5, 7, 9, OD600 for 10 hours, FIG. 3) is listed as “pH 9 (dotted line) decreases full-length RNase 7 activity; also recorded: activity was optimal at pH 7 against E. coli”. Further, in the test with E. coli (2 μM peptide, 50, 150, 500 mM NaCl, OD600 for 10 hours, FIG. 4), the “activity on E. coli growth at various NaCl titers” value is “activity was not different at 50 and 150 mM NaCl”. Also, the “activity on E. coli growth at various CaCl2 titers” value with E. coli (2 μM peptide, CaCl2 up to 16.25 mM, OD600 for 10 hours, FIG. 5) was “activity is inversely related to CaCl2 concentration; also recorded: significantly reduced full-length RNase 7 activity against all uropathogens”. Besides, in the test with S. saprophyticus (2 μM peptide, 50, 150, 500 mM NaCl, OD600 for 10 hours, FIG. 7), the “activity on S. saprophyticus growth at various NaCl titers” value is “diminished in direct proportion to NaCl concentration; also recorded: activity inversely related to NaCl concentration”. The “activity on S. saprophyticus growth at various CaCl2 titers” value with S. saprophyticus (2 μM peptide, CaCl2 up to 16.25 mM, OD600 for 10 hours, FIG. 8) was “significantly reduced full-length RNase 7 activity against all uropathogens; also recorded: activity is inversely related to CaCl2 concentration”. The “activity on S. saprophyticus growth at various pH levels” value in the test with S. saprophyticus (2 μM peptide, pH 5, 7, 9, OD600 for 10 hours, FIG. 6) is “activity is potent at all pH; also recorded: maintained high activity at pH 5”. In addition, the “activity on Proteus mirabilis growth at various CaCl2 titers” value with Proteus mirabilis (2 μM peptide, 1.25, 7.5, 16.25 mM CaCl2, OD600 for 10 hours, FIG. 11) is listed as “significantly reduced full-length RNase 7 activity against all uropathogens; also recorded: activity is significantly diminished at higher CaCl2 concentrations but relatively unaffected at 1.25 mM concentration”. Further, in the test on Proteus mirabilis (2 μM peptide, 50, 150, 500 mM NaCl, OD600 for 10 hours, FIG. 10), the “activity on Proteus mirabilis growth at various NaCl titers” value is reported as “diminished significantly with additional of any NaCl titer; also recorded: activity markedly diminished at all salt concentrations”. Moreover, the “activity on Proteus mirabilis growth at various pH levels” value with Proteus mirabilis (2 μM peptide, pH 5, 7, 9, OD600 for 10 hours, FIG. 9) is “maintained high activity at pH 5; also recorded: activity is potent at pH 5”.
